Measured values reported in PMC7664906 (International Journal of Molecular Sciences, 2020).
Where two headings read alike, the source gives them in different places. Where no end group is shown, it is not given here.

Legend:
ECE-1 = ECE-1 (Homo sapiens, UniProt P42892)
[1] = target: SNAP-GLP-1R (pSNAP-GLP-1R) on HEK293-SNAP-GLP-1R cells (UniProt P43220); assay: FRET or BRET
[2] = 10 nmol peptide in 750 µl 0.2 M acetate buffer pH 5.5 (GLP-1 also at neutral pH), 0.25 µg recombinant ECE-1, 37 °C, up to 24 h, RP-HPLC C18, UV 214 nm, peak area with versus without enzyme, n = 2-3

Sequence of SNAP-GLP-1R (pSNAP-GLP-1R) on HEK293-SNAP-GLP-1R cells (P43220 24-463): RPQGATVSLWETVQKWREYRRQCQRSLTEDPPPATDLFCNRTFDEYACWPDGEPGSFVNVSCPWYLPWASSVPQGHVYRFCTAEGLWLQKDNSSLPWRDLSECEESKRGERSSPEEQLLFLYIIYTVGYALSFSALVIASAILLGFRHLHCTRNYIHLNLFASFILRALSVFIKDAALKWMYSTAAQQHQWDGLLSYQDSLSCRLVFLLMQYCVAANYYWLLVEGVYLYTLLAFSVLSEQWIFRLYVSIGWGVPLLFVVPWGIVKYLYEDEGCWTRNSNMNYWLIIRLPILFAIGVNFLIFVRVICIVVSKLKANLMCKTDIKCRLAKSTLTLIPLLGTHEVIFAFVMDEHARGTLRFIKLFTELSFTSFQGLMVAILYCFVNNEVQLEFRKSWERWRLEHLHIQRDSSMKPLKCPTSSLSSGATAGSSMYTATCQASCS
Sequence of ECE-1 (P42892 whole entry, species assumed): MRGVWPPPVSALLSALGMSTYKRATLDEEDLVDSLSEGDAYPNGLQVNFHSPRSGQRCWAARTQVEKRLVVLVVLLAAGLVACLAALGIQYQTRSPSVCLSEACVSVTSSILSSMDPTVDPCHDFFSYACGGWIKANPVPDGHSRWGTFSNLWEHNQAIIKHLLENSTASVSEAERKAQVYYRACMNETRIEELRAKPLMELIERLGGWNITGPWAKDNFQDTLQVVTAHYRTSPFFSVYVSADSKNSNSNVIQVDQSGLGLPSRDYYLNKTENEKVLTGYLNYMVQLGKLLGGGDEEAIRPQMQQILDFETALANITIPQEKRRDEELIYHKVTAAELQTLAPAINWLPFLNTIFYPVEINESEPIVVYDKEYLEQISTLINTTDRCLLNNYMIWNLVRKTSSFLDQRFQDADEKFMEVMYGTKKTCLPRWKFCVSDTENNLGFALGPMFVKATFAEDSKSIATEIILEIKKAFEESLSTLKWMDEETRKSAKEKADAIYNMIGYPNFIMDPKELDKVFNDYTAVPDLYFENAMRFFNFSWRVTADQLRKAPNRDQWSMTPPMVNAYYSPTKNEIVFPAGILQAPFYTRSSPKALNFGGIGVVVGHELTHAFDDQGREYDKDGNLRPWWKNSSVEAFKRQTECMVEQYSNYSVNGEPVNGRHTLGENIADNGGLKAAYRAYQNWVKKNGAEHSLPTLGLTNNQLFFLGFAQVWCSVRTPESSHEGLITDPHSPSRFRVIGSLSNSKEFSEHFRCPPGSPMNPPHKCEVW

Molecule	Log Ki [1]	other results
CC[C@H](C)[C@H](NC(=O)[C@H](Cc1ccccc1)NC(=O)[C@H](CC(C)C)NC(=O)[C@H](CCCNC(=N)N)NC(=O)[C@@H](NC(=O)[C@H](C)NC(=O)[C@H](CCC(=O)O)NC(=O)[C@H](CCC(=O)O)NC(=O)[C@H](CCC(=O)O)NC(=O)[C@H](CC(C)C)NC(=O)[C@H](Cc1ccc(O)cc1)NC(=O)[C@H](CO)NC(=O)[C@H](CO)NC(=O)[C@@H](NC(=O)[C@H](CC(=O)O)NC(=O)[C@H](CO)NC(=O)[C@@H](NC(=O)[C@H](Cc1ccccc1)NC(=O)[C@@H](NC(=O)CNC(=O)[C@H](CCC(=O)O)NC(=O)[C@H](C)NC(=O)[C@@H](N)Cc1c[nH]cn1)[C@@H](C)O)[C@@H](C)O)C(C)C)C(C)C)C(=O)N[C@@H](CCC(=O)O)C(=O)N[C@@H](Cc1c[nH]c2ccccc12)C(=O)N[C@@H](CC(C)C)C(=O)N[C@@H](CCCCN)C(=O)N[C@@H](CC(N)=O)C(=O)NCC(=O)NCC(=O)N1CCC[C@H]1C(=O)N[C@@H](CO)C(=O)N[C@@H](CO)C(=O)NCC(=O)N[C@@H](C)C(=O)N1CCC[C@H]1C(=O)N1CCC[C@H]1C(=O)N1CCC[C@H]1C(=O)N[C@@H](CO)C(N)=O [Chi3]		In vitro peptide degradation by / resistance to ECE-1 (in words) (ECE-1; [2]): most ECE-1-resistant
CC[C@H](C)[C@H](NC(=O)[C@H](Cc1ccccc1)NC(=O)[C@H](CCC(=O)O)NC(=O)[C@H](CCCCN)NC(=O)[C@H](C)NC(=O)[C@H](C)NC(=O)[C@H](CCC(N)=O)NC(=O)CNC(=O)[C@H](CCC(=O)O)NC(=O)[C@H](CC(C)C)NC(=O)[C@H](Cc1ccc(O)cc1)NC(=O)[C@H](CO)NC(=O)[C@H](CO)NC(=O)[C@@H](NC(=O)[C@H](CC(=O)O)NC(=O)[C@H](CO)NC(=O)[C@@H](NC(=O)[C@H](Cc1ccccc1)NC(=O)[C@@H](NC(=O)CNC(=O)[C@H](CCC(=O)O)NC(=O)CNC(=O)[C@@H](N)Cc1cnc[nH]1)[C@@H](C)O)[C@@H](C)O)C(C)C)C(=O)N[C@@H](C)C(=O)N[C@@H](Cc1c[nH]c2ccccc12)C(=O)N[C@@H](CC(C)C)C(=O)N[C@H](C(=O)N[C@@H](CCCCN)C(=O)NCC(=O)N[C@@H](CCCNC(=N)N)C(N)=O)C(C)C [GLP-1-G2]		In vitro peptide degradation by / resistance to ECE-1 (in words) (ECE-1; pH 5.5): ECE-1-sensitive
Chi1 (GLP-1 with the exendin-4 Trp-cage added to its C-terminus) (peptide)	-8.2 Log (M)	
Chi1, N-terminus D3 (asp3 derivative) (peptide)	-8.5 Log (M)	
Chi1, N-terminus F1 (phe1 derivative) (peptide)	-6.4 Log (M)	
HAEGTFTSDVSSYLEGQAAKEFIEWLKNGGPSSGAPPPS-NH2 [Chi2]		In vitro peptide degradation by / resistance to ECE-1 (in words) (ECE-1; [2]): most ECE-1-resistant
exendin-4 (from UniProt P26349 48-87) (peptide)	-9.5 Log (M)	
exendin-4(1-30) (peptide)	-9 Log (M)	
exendin-4(1-30), N-terminus D3 (asp3 derivative) (peptide)	-9.2 Log (M)	
exendin-4(1-30), N-terminus F1 (phe1 derivative) (peptide)	-7.5 Log (M)	
exendin-4, N-terminus D3 (asp3 derivative) (peptide)	-9.2 Log (M)	
exendin-phe1 (peptide)	-7.3 Log (M)	
